In assay [1] the target is T1, HLA-A2.01 molecule (Homo sapiens, UniProt P04439, D140Y/D185E/D98H/E176V/E277Q/G131W/G231S/I119V/I121R/I166T/I218V/L300P/L318F/N151K/N90K/P208A/P217A/Q86G/Q94H/R138H/R169H/T345S).
T1 construct: stability conferred on the peptide MHC complex thus formed at the cell surface by using tap T2 cells expressing HLA-A*02.01; endogenous in cells; host or cells: T2 cells
Briefly: Stabilization of HLA-A2.01 molecules at the surface of T2 cells (RA and DC50). In kind it is binding. Particulars: for Measurement of stabilization DC50 (half-life of peptide-HLA-A2.1 stabilized complexes): overnight incubation, indirect immunofluorescence/FACS at 0, 2, 4 and 5 h; for Measurement of stabilization RA: ratio of concentrations of tested versus reference peptide to attain 20% of maximal number of stabilized molecules. An excerpt:
A person well-acquainted with the field of the invention will know how to obtain different mutated and derived peptides and will also know how to determine which of all of the peptides obtained are the peptides having adequate biological activity. […] The term DC50 characterizing the half-life of the peptide HLA-A2.01 complex is described in the publication “H-2 class 1 knockout, HLA-A2.1-transgenic mice: a versatile animal model for preclinical evaluation of antitumor immunotherapeutic strategies” (European Journal of Immunology: 29:3112-21, 1999). This half-life ought normally to make it capable of inducing in vivo or in vitro a cytotoxic immune response. Preferably, the peptide obtained will slow down the growth of lymphoblastic tumor cells when administered to a leukemic receiver and will trigger a cytotoxic T response to the leukemic cells of common type B-ALL with t(12;21) of the leukemic receiver.
It is known that the affinity of an epitopic peptide for the MHC predicts in part its immunogenic potential. This affinity can be measured by its binding capacity to class I MHC and by the stability conferred on the peptide MHC complex thus formed at the cell surface by using tap T2 cells expressing HLA-A*02.01.
These preliminary results have subsequently been used to optimize further the R9M peptide. […] The binding tests performed in vitro by using the soluble HLA-A2.01 molecules and T2 cells have shown that the binding to and the stabilization capacity for the HLA-A2.01 molecules was greater than that of the wildtype R9M peptide (Table 2).

For assay [2], the target named is T1, HLA-A2.01 molecule. Briefly: Inhibition of binding of 125I-F10V (HBVc.18-27) to soluble HLA-A2.01 molecules. How it is done:
The product of the chimeric genes resulting from the translocation (12;21) is a neoprotein which is expressed in the leukemic cells of common B-ALL type and which can be detected by Western blot. […] In a first step, the capacity of 9 junctional nonapeptides to inhibit the binding to soluble HLA-A*0201 was measured.

Assay [3] relates to RMAS-HHD cells stimulated with the mutated peptide. In words: Secondary CTL response of immunized HHD mice against RMAS-HHD cells stimulated with the mutated peptide. In kind it is in vivo. Particulars: for R/T (mice responders versus total of mice tested): responder = at least 10% specific lysis. An excerpt: (§1) The immunogenicity of the mutated peptides was then studied in the HHD transgenic mouse (H2 class 1—negative and transgenic for HLA-A*02.01). These mice are described in European Journal of Immunology, 29:3112-21, 1999. Groups of more than 10 HHD mice were immunized by the synthetic peptides (emulsion in IFA with the helper peptide HBVcore128-140 as described previously in Firat et al., Eur. J. Immunol. 29:3112-21 (1999)).
(§2) On the other hand, the mutated peptides (having single or double substitutions) induce a strong CTL activity and lyse the TEL AML* tumor lines in the majority of cases (Table 3 and Table 4). The enhanced immunogenicity of the mutated R9M peptides was then confirmed in vitro by using mononucleated cells of 5 healthy HLA-A*02.01 subjects (FIG. 2).

The subject of assay [4] is RMAS-HHD cells stimulated with the wildtype peptide. Briefly: Secondary CTL response of immunized HHD mice against RMAS-HHD cells stimulated with the wildtype peptide. It counts as in vivo. Particulars: responder = at least 10% specific lysis, targets with wildtype peptide.
Excerpt: as §1, §2

Assay [5] deals with RMAS-HHD cells stimulated with the mutated peptide. Briefly: Tertiary CTL response of immunized HHD mice against RMAS-HHD cells stimulated with the mutated peptide. Particulars: for R/T (mice responders versus total of mice tested): responder = at least 10% specific lysis, targets with mutated peptide. It counts as in vivo.
Excerpt: as §1, §2

Another assay relates to TEL/AML+ EL4-HHD cells. Briefly: Tertiary CTL response of immunized HHD mice against TEL/AML+ EL4-HHD cells. It counts as in vivo. Particulars: responder = at least 10% specific lysis, TEL/AML+ EL4-HHD targets.
Excerpt: as §1, §2

In assay [6] the test system is EL4 S3-Rob-HHD cells expressing the TEL/AML1 fusion protein. Briefly: Tumor model in HHD mice immunized with peptide and injected with tumor cells. The settings on record: groups of 8 HHD mice immunized beforehand; for development of tumors (in words): FIG. 3; for survival of the mice (in words): FIG. 4.
Another assay deals with HLA-A2.1*T2 target cells. Particulars: results in the public domain; cited from earlier work.
The mark [7] stands for this setting: secondary response, targets with mutated peptide.

Results on 13 substances are retold here after patent US8303957B2, “Mutated immunogenic peptides derived from R9M, polynucleotides coding for same and therapeutic uses thereof” (Institut Pasteur, priority 2000, dated 2012).

Values joined by “and” are separate entries in the source; they are usually repeats but may differ in a detail not shown here. Equal values may be shown once. “Also recorded” adds a separate entry of the source. Marks after values point to notes of the source that are not given here. Non-standard residues stand in square brackets, D forms with d. No end group written: not given here. Abu = CC[C@H](N)C(=O)O

In the case of AMPIGRIAE [A9E], in the assay with HLA-A2.01 molecule [1], the “Measurement of stabilization DC50 (half-life of peptide-HLA-A2.1 stabilized complexes)” value (from here on “Measurement of stabilization DC50”) is 2 to 4 h and the “Measurement of stabilization RA” value was 10-100. Further, in the assay with HLA-A2.01 molecule [2], the “percentage inhibition of the binding of F10V, ratio peptide/125I-F10V 10/1” value is 47^d % and the “percentage inhibition of the binding of F10V, ratio peptide/125I-F10V 25/1” value amounted to 57%.
Consider “ILKEPVHGV [HIV 1 rt.476, reference compound]”, for which, at HLA-A2.01 molecule [1], the “Measurement of stabilization DC50” value is given as 5 h and the “Measurement of stabilization RA” value was 1.
Consider PIGRIAECI [P91], for which, in the assay with HLA-A2.01 molecule [1], the “Measurement of stabilization DC50” value was 0 h and the “Measurement of stabilization RA” value is recorded as more than 100.
As for RIAEAILGM [R9M-5A], the “Measurement of stabilization DC50” value with HLA-A2.01 molecule [1] is given as less than 2 h. In addition, the “Measurement of stabilization RA” value with HLA-A2.01 molecule [1] is reported as 3.2. In addition, in the assay with HLA-A2.01 molecule [2], the “percentage inhibition of the binding of F10V, ratio peptide/125I-F10V 10/1” value is 59%. The “percentage inhibition of the binding of F10V, ratio peptide/125I-F10V 25/1” value with HLA-A2.01 molecule [2] is on record as 72%. Also, the “R/T (mice responders versus total of mice tested)” value in assay [3] (setting [7]) was 2/10; in assay [4], 2/10; in assay [5], 1/10; in the assay with TEL/AML+ EL4-HHD cells, 6/10. For the same substance, the “% of clear lysis (maximal lysis for each mouse responder)” value in assay [5] (E/T ratio 60:1, targets with mutated peptide) is reported as “(20) %”. For the same substance, the “development of tumors (in words)” value in assay [6] is reported as “capable of slowing down the development of tumors”. Further, the “survival of the mice (in words)” value in assay [6] is given as “prolonging the survival of the mice”.
In the case of “RIAECILGM (listed as Homo sapiens) [R9M, reference compound]”, in the assay with HLA-A2.01 molecule [1], the “stability of the peptide/HLA-A2.01 complex at the surface of T2 cells (in words)” value was “quite unstable; also recorded: not very stable”, the “Measurement of stabilization DC50” value was less than 2 h and the “Measurement of stabilization RA” value was found to be 2.9. In the assay with HLA-A2.01 molecule [2], the “percentage inhibition of the binding of F10V, ratio peptide/125I-F10V 10/1” value is recorded as 64% and the “percentage inhibition of the binding of F10V, ratio peptide/125I-F10V 25/1” value came to 69%. The “% of clear lysis (maximal lysis for each mouse responder)” value in assay [3] (secondary response, E/T ratio 60:1, targets with mutated peptide) is given as “(13) %”. The “R/T (mice responders versus total of mice tested)” value in assay [3] (setting [7]) is reported as 1/18. The “CTL response induced in immunized HLA-A2.01 transgenic (HHD) mice (in words)” value in assay [3] (synthetic peptide in IFA with helper peptide HBVcore128-140) was “inconstancy and the weakness of the CTL responses induced; also recorded: inconstancy and weakness of the CTL responses induced; also recorded: weak specific CTL response”. For the same substance, the “R/T (mice responders versus total of mice tested)” value in assay [5] is on record as 2/10. The “R/T (mice responders versus total of mice tested)” value in the assay with TEL/AML+ EL4-HHD cells is reported as 5/10. For the same substance, the “capacity to induce CTLs from the peripheral blood of healthy donors (in words)” value with HLA-A2.1*T2 target cells is “has been demonstrated”.
For RIAESILGM [R9M-5S], in the assay with HLA-A2.01 molecule [1], the “Measurement of stabilization DC50” value turned out to be 2 h and the “Measurement of stabilization RA” value amounted to 2.2. In addition, in the assay with HLA-A2.01 molecule [2], the “percentage inhibition of the binding of F10V, ratio peptide/125I-F10V 10/1” value turned out to be 74% and the “percentage inhibition of the binding of F10V, ratio peptide/125I-F10V 25/1” value worked out at 75%. Moreover, the “R/T (mice responders versus total of mice tested)” value in assay [3] (setting [7]) is given as 11/14. For the same substance, the “R/T (mice responders versus total of mice tested)” value in assay [4] is 6/14. Besides, the “R/T (mice responders versus total of mice tested)” value in assay [5] is 6/10. For the same substance, in the assay with TEL/AML+ EL4-HHD cells, the “R/T (mice responders versus total of mice tested)” value was 11/14. In assay [6], the “development of tumors (in words)” value is given as “capable of slowing down the development of tumors” and the “survival of the mice (in words)” value is recorded as “prolonging the survival of the mice”.
On to “RIAEα-butILGM (RIAE[Abu]ILGM) [R9M-5α-but]”, for which, in the assay with HLA-A2.01 molecule [1], the “Measurement of stabilization DC50” value amounted to 2 h and the “Measurement of stabilization RA” value came out at 2. Besides, in the assay with HLA-A2.01 molecule [2], the “percentage inhibition of the binding of F10V, ratio peptide/125I-F10V 10/1” value worked out at 27% and the “percentage inhibition of the binding of F10V, ratio peptide/125I-F10V 25/1” value worked out at 49%. The “R/T (mice responders versus total of mice tested)” value in assay [3] (secondary response, targets with mutated peptide, listed as R9M-5a-but) is 7/10 and 8/10. Moreover, the “R/T (mice responders versus total of mice tested)” value in assay [4] (listed as R9M-5a-but) was 5/10 and 8/10. The “R/T (mice responders versus total of mice tested)” value in assay [5] is listed as 8/10. For the same substance, the “R/T (mice responders versus total of mice tested)” value in the assay with TEL/AML+ EL4-HHD cells (listed as R9M-5a-but) was 7/10 and 10/10. In assay [6], the “development of tumors (in words)” value was “capable of slowing down the development of tumors” and the “survival of the mice (in words)” value is “prolonging the survival of the mice”.
YIAEAILGM [Y9M-5A]: the “Measurement of stabilization DC50” value with HLA-A2.01 molecule [1] fell in the range of 2 to 5 h. Besides, the “Measurement of stabilization RA” value in the assay with HLA-A2.01 molecule [1] turned out to be 0.9. The “percentage inhibition of the binding of F10V, ratio peptide/125I-F10V 10/1” value with HLA-A2.01 molecule [2] is listed as 79%. In addition, in the assay with HLA-A2.01 molecule [2], the “percentage inhibition of the binding of F10V, ratio peptide/125I-F10V 25/1” value was 87%. The “R/T (mice responders versus total of mice tested)” value is 8/10 in assay [3] (setting [7]), 7/10 in assay [4], 9/10 in assay [5] and 5/10 in the assay with TEL/AML+ EL4-HHD cells.
YIAECILGM [Y9M]: in the assay with HLA-A2.01 molecule [1], the “Measurement of stabilization DC50” value is given as less than 2 h and the “Measurement of stabilization RA” value is reported as more than 100.
Take YIAESILGM [Y9M-5S]: the “Measurement of stabilization DC50” value with HLA-A2.01 molecule [1] lay within 2 to 5 h. The “Measurement of stabilization RA” value in the assay with HLA-A2.01 molecule [1] worked out at 1.4. Besides, the “percentage inhibition of the binding of F10V, ratio peptide/125I-F10V 10/1” value with HLA-A2.01 molecule [2] came out at 25%. In addition, the “percentage inhibition of the binding of F10V, ratio peptide/125I-F10V 25/1” value with HLA-A2.01 molecule [2] is listed as 37%. Further, the “R/T (mice responders versus total of mice tested)” value was 9/10 in assay [3] (setting [7]), 3/10 in assay [4], 9/10 in assay [5] and 6/10 with TEL/AML+ EL4-HHD cells.
As for “YIAEα-butILGM (YIAE[Abu]ILGM) [Y9M-5α-but]”, in the assay with HLA-A2.01 molecule [1], the “Measurement of stabilization DC50” value is 2 to 5 h and the “Measurement of stabilization RA” value was 0.7. In addition, in the assay with HLA-A2.01 molecule [2], the “percentage inhibition of the binding of F10V, ratio peptide/125I-F10V 10/1” value is given as 26% and the “percentage inhibition of the binding of F10V, ratio peptide/125I-F10V 25/1” value stood at 26%.
As to YIGRIAECI [Y9I], in the assay with HLA-A2.01 molecule [1], the “Measurement of stabilization DC50” value is on record as less than 2 h and the “Measurement of stabilization RA” value is more than 100.
The matching figures for YMPIGRIAE [Y9E]: 0 h and more than 100.
